Measured values reported in doi:10.1101/589119.

Target: core Cascade subunits (crRNA, Cas11, Cas7, Cas5, Cas6e) (E. coli K12) (UniProt Q46899)
Test: single-particle tracking PALM

Chain of UniProt Q46899 (Q46899 whole entry, looked up): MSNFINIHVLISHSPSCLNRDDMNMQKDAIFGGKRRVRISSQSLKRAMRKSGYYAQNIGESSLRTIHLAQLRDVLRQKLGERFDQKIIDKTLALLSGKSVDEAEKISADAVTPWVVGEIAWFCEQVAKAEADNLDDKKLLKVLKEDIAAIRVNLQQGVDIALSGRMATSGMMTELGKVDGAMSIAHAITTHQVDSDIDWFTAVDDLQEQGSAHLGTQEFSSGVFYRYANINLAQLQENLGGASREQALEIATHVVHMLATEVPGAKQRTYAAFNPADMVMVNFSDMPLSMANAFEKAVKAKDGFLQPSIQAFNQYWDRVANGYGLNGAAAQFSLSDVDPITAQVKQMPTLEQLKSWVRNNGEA

fraction of Cas8e in Cascade complexes: 60%
Substance: PAmCherry2-Cas8e (Cascade subunit Cas8e with a photoactivatable fluorescent protein fused to its N-terminus) (natural protein)
